Assay results taken from patent US20110118131A1 (published 2011).
Where a chain is given by its changes, count along the chain named. Numbers in names are those of the source. Where “and” joins values, the source holds several entries; their conditions need not be identical. Equal values may be shown once.

T1: Ep-CAM (UniProt P16422 24-265)
T1 chain: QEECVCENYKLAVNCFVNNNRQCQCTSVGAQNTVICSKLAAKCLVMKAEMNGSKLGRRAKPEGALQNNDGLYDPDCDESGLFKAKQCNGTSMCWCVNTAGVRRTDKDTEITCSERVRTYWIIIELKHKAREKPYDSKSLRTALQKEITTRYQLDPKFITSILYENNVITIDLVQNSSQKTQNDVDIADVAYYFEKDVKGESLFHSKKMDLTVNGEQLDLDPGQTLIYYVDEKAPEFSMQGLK

B1: XPA23 (IL-1 antibody) (antibody, V domains shown)
VH: EVQLLESGGGLVQPGGSLRLSCAASGFTFSKYFMFWVRQAPGKGLEWVSVISPSGGMTRYADSVKGRFTISRDNSKNTLYLQMNSLRAEDTAVYYCARVGYGGNSDYWGQGTLVTVSS
VL: DIQMTQSPSSVSASVGDRLTIICRASQDINRWLAWYQQTPGNAPKLLIHSATSLQSGVPSRFSGSGSGTDFTLTINSLQPEDFATYYCQQADSFPLTFGGGTKVEIK
notes: also called cA5; C5A
B2: modified XPA23 Y208L mutant (antibody, V domains shown)
VH: B1 VH with Y101L
VL: B1 VL
B3: modified ING-1 IgG with an A102F substitution (antibody, V domains shown)
VH: QIQLVQSGPELKKPGETVKISCKASGYTFTKYGMNWVKQAPGKGLKWMGWINTYTEEPTYGDDFKGRFAFSLETSASTANLQINNLKSEDTATYFCARFGSFVDYWGQGTSVTVSS
VL: QIVMTQAAFSNPVTLGTSGSISCRSSKSLLHSNGITYLYWYLQKPGQSPQLLIYQMSNLASGVPDRFSSSGSGTDFTLRISRVEAEDVGVYYCAQNLELPRTFGGGTKLEMKR
B4: modified ING-1 IgG with a 102G substitution (antibody, V domains shown)
VH: B3 VH with F102G
VL: B3 VL
B5: XPA23 heavy chain D106A (Fab, V domains shown)
VH: B1 VH with D106A
VL: B1 VL
notes: Fab, periplasmic extract; also called C5A D106A
B6: XPA23 heavy chain V99L (Fab, V domains shown)
VH: B1 VH with V99L
VL: B1 VL
notes: Fab, periplasmic extract; also called C5A V99L
B7: XPA23 heavy chain V99P (Fab, V domains shown)
VH: B1 VH with V99P
VL: B1 VL
notes: Fab, periplasmic extract; also called C5A V99P
B8: XPA23 heavy chain K31T (Fab, V domains shown)
VH: B1 VH with K31T
VL: B1 VL
notes: Fab, periplasmic extract; also called C5A K31T
B9: XPA23 heavy chain M57P (Fab, V domains shown)
VH: B1 VH with M57P
VL: B1 VL
notes: Fab, periplasmic extract; also called C5A M57P
B10: XPA23 heavy chain S52I (Fab, V domains shown)
VH: B1 VH with S52I
VL: B1 VL
notes: Fab, periplasmic extract; also called C5A S52I
B11: XPA23 heavy chain R59I (Fab, V domains shown)
VH: B1 VH with R59I
VL: B1 VL
notes: Fab, periplasmic extract; also called C5A R59I
B12: XPA23 heavy chain G102P (Fab, V domains shown)
VH: B1 VH with G102P
VL: B1 VL
notes: Fab, periplasmic extract; also called C5A G102P
B13: XPA23 heavy chain D106T (Fab, V domains shown)
VH: B1 VH with D106T
VL: B1 VL
notes: Fab, periplasmic extract; also called C5A D106T
B14: XPA23 heavy chain R59V (Fab, V domains shown)
VH: B1 VH with R59V
VL: B1 VL
notes: Fab, periplasmic extract; also called C5A R59V
B15: XPA23 heavy chain V50P (Fab, V domains shown)
VH: B1 VH with V50P
VL: B1 VL
notes: Fab, periplasmic extract; also called C5A V50P
B16: XPA23 heavy chain S30V (Fab, V domains shown)
VH: B1 VH with S30V
VL: B1 VL
notes: Fab, periplasmic extract; also called C5A S30V
B17: XPA23 heavy chain R59A (Fab, V domains shown)
VH: B1 VH with R59A
VL: B1 VL
notes: Fab, periplasmic extract; also called C5A R59A
B18: XPA23 heavy chain D106V (Fab, V domains shown)
VH: B1 VH with D106V
VL: B1 VL
notes: Fab, periplasmic extract; also called C5A D106V
B19: XPA23 heavy chain G100P (Fab, V domains shown)
VH: B1 VH with G100P
VL: B1 VL
notes: Fab, periplasmic extract; also called C5A G100P
B20: XPA23 heavy chain Y101G (Fab, V domains shown)
VH: B1 VH with Y101G
VL: B1 VL
notes: Fab, periplasmic extract; also called C5A Y101G
B21: XPA23 heavy chain K31P (Fab, V domains shown)
VH: B1 VH with K31P
VL: B1 VL
notes: Fab, periplasmic extract; also called C5A K31P
B22: XPA23 heavy chain Y32A (Fab, V domains shown)
VH: B1 VH with Y32A
VL: B1 VL
notes: Fab, periplasmic extract; also called C5A Y32A
B23: XPA23 heavy chain G100L (Fab, V domains shown)
VH: B1 VH with G100L
VL: B1 VL
notes: Fab, periplasmic extract; also called C5A G100L
B24: XPA23 heavy chain G102V (Fab, V domains shown)
VH: B1 VH with G102V
VL: B1 VL
notes: Fab, periplasmic extract; also called C5A G102V
B25: XPA23 heavy chain G102L (Fab, V domains shown)
VH: B1 VH with G102L
VL: B1 VL
notes: Fab, periplasmic extract; also called C5A G102L
B26: XPA23 heavy chain G102A (Fab, V domains shown)
VH: B1 VH with G102A
VL: B1 VL
notes: Fab, periplasmic extract; also called C5A G102A
B27: XPA23 heavy chain S30P (Fab, V domains shown)
VH: B1 VH with S30P
VL: B1 VL
notes: Fab, periplasmic extract; also called C5A S30P
B28: XPA23 heavy chain S52L (Fab, V domains shown)
VH: B1 VH with S52L
VL: B1 VL
notes: Fab, periplasmic extract; also called C5A S52L
B29: XPA23 heavy chain D106L (Fab, V domains shown)
VH: B1 VH with D106L
VL: B1 VL
notes: Fab, periplasmic extract; also called C5A D106L
B30: XPA23 heavy chain D106P (Fab, V domains shown)
VH: B1 VH with D106P
VL: B1 VL
notes: Fab, periplasmic extract; also called C5A D106P
B31: XPA23 heavy chain D106I (Fab, V domains shown)
VH: B1 VH with D106I
VL: B1 VL
notes: Fab, periplasmic extract; also called C5A D106I
B32: XPA23 heavy chain S105L (Fab, V domains shown)
VH: B1 VH with S105L
VL: B1 VL
notes: Fab, periplasmic extract; also called C5A S105L
B33: XPA23 heavy chain I51P (Fab, V domains shown)
VH: B1 VH with I51P
VL: B1 VL
notes: Fab, periplasmic extract; also called C5A I51P

Target: IL-1β (UniProt P01584 117-269)
Assay: Biacore kinetic titration, IL-1β amine coupled to CM5 chip, 25 C
Protocol: In an exemplary method, an antigen such as IL-1β is amine coupled to a CM5 sensor chip. Each sample (e.g., from lowest to highest concentration) may be injected for 240 seconds at a flow rate of 30 µl/min at a selected temperature (e.g., 25° C.). Sample are allowed to dissociate for 30 seconds except the highest concentration which may be permitted 300 seconds to dissociate. The assay is run at 25° C.
Biaevaluation software (e.g., Biacore 2000 evaluation software) is used to calculate dissociation rates of individual samples and the relative amount of sample bound to each test surface. The data is fit to an appropriate kinetic model (e.g., the kinetic titration model).

Row | Kd [nM] | Molecule
1 | 46 | B1
2 | 16.2 | B2

Target: biotinylated Ep-Cam (UniProt P16422)
Assay: DELFIA competition, negative control well, biotinylated Ep-Cam, plate-coated parental ING-1 IgG as competitor

Row | Percentage of inhibition | Molecule
3 | -0.4% and 0.1% and 0.3% | negative control (wells E12-H12)

Target: T1, Ep-CAM
Assay: Biacore SPR; Fig. 15B

Row | Kd [nM] | Molecule
4 | 0.9 | B3

Target: T1, Ep-CAM
Assay: Biacore SPR; Fig. 15C

Row | Kd [nM] | Molecule
5 | 0.6 | B4

Target: T2, IL-1β (UniProt P01584 117-269)
T2 construct: Antigen of XPA23
Assay: Biacore, Fab periplasmic extract; -1 = no binding by the table's footnote

Row | binding result | Molecule
6 | no binding | B5
7 | no binding | B6
8 | no binding | B7
9 | no binding | B8
10 | no binding | B9
11 | no binding | B10
12 | no binding | B11
13 | no binding | B12
14 | no binding | B13
15 | no binding | B14
16 | no binding | B15
17 | no binding | B16
18 | no binding | B17
19 | no binding | B18
20 | no binding | B19
21 | no binding | B20
22 | no binding | B21
23 | no binding | B22
24 | no binding | B23
25 | no binding | B24
26 | no binding | B25
27 | no binding | B26
28 | no binding | B27
29 | no binding | B28
30 | no binding | B29
31 | no binding | B30
32 | no binding | B31
33 | no binding | B32
34 | no binding | B33
